# B1: minF1; a variant is named by its letters at N, in order (parent)
# chain: GAGACCGCAACTGAAAAGTTGTTNNNNAANNNNGGNTNNATTTCTGCACGTAGAAGCAAAAGGC
# Variants of: B1
# Experiment: fraction ligated after 30 min (ligated reads / total reads); higher = more ligase activity
# Conditions: with F1*subA RNA substrate (template-directed ligation), 42 °C
# Experimental: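 Chip-synthesised pool of minF1 ligase ribozyme variants (single and double substitutions, single to quadruple deletions, bulge and P2 designed variants) was transcribed with T7 and reacted as a pool with excess substrate F1*subA for 30 min at 42 C in 50 mM EPPS pH 8.5, 25 mM MgCl2. Ligated and unligated RNAs were separated by PAGE, barcoded by RT and deep sequenced; fraction ligated = ligated reads / total reads, relative activity = FL / FL of wild-type minF1 (0.76); sequencing FL correlated with PAGE (R2 = 0.98). Sequences are the DNA template of the ribozyme.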
row,Variant,fraction ligated
1,GAGACCGCAACTGAAAAGTTGTTTCAAAATGGATGGGTTATTTCTGCACGTAGAAGCAAAAGGC [TCAATGGAGTT G34T T37G],0.00235
2,GAGACCGCAACTGAAAAGTTGTTTCAGAAAGGATGGGTTATTTCTGCACGTAGAAGCAAAAGGC [TCAGAGGAGTT G34T T37G],0.000958
3,GAGACCGCAACTGAAAAGTTGTATCAAAAGGTGGGTTGAATTTCTGCACGTAGAAGCAAAAGGC [TCAAGGTGTGA T23A],0.00305
4,GAGACCGCAACTGAAAAGTTGTTACAAAATGGATGGTTAATTTCTGCACGTAGAAGCAAAAGGC [ACAATGGAGTA G34T],0.0117
5,GAGACCGCAACTGAAAAGTTGTTTCAGAAAGGAGGGTTGATTTCTGCACGTAGAAGCAAAAGGC [TCAGAGGAGTG],0.00573
6,GAGACCGCAACTGAAAAGTTGTTTCAGAAAGGAGGGTTAATTTCTGCACGTAGAAGCAAAAGGC [TCAGAGGAGTA],0
7,GAGACCGCAACTGAAAAGTTGTTACAAAATGGGGGTTGAATTTCTGCACGTAGAAGCAAAAGGC [ACAATGGGTGA],0.00353
8,GAGACCGCAACTGAAAAGTTGTTTCAGAAAGGATGGTTAATTTCTGCACGTAGAAGCAAAAGGC [TCAGAGGAGTA G34T],0.00236
9,GAGACCGCAACTGAAAAGTTGTATCAGAAAGATGGTTGAATTTCTGCACGTAGAAGCAAAAGGC [TCAGAGATTGA T23A],0.00203
10,GAGACCGCAACTGAAAAGTTGTATCAAAATGGATGGGTTATTTCTGCACGTAGAAGCAAAAGGC [TCAATGGAGTT T23A G34T T37G],0.00105
11,GAGACCGCAACTGAAAAGTTGTTACAAATGGTGGGTTGAATTTCTGCACGTAGAAGCAAAAGGC [ACAAGGTGTGA A29T],0.00256
12,GAGACCGCAACTGAAAAGTTGTATCAAAATGGATGGTTGATTTCTGCACGTAGAAGCAAAAGGC [TCAATGGAGTG T23A G34T],0.0342
13,GAGACCGCAACTGAAAAGTTGTTTCAGAAAATGGGTTGAATTTCTGCACGTAGAAGCAAAAGGC [TCAGAATGTGA],0.00302
14,GAGACCGCAACTGAAAAGTTGTTACAGAAAGGATGGTTGATTTCTGCACGTAGAAGCAAAAGGC [ACAGAGGAGTG G34T],0.00588
15,GAGACCGCAACTGAAAAGTTGTATCAAAATGGAGGGTTGATTTCTGCACGTAGAAGCAAAAGGC [TCAATGGAGTG T23A],0.0035
16,GAGACCGCAACTGAAAAGTTGTTACAAAATGGATGGTTGATTTCTGCACGTAGAAGCAAAAGGC [ACAATGGAGTG G34T],0.0274
17,GAGACCGCAACTGAAAAGTTGTTACAAAATGATGGGTTGATTTCTGCACGTAGAAGCAAAAGGC [ACAATGATGTG],0.00556
18,GAGACCGCAACTGAAAAGTTGTTACAAAATGATGGGTTAATTTCTGCACGTAGAAGCAAAAGGC [ACAATGATGTA],0.00197
19,GAGACCGCAACTGAAAAGTTGTTACAGAAAGGAGGGTTAATTTCTGCACGTAGAAGCAAAAGGC [ACAGAGGAGTA],0.0028
20,GAGACCGCAACTGAAAAGTTGTTACAGAAAGGAGGGTTGATTTCTGCACGTAGAAGCAAAAGGC [ACAGAGGAGTG],0.00401
21,GAGACCGCAACTGAAAAGTTGTTTCAGAAAGGATGGGTTGTTTCTGCACGTAGAAGCAAAAGGC [TCAGAGGAGTT G34T T37G A40G],0.000453

row,Variant,fraction ligated
1,GAGACCGCAACTGAAAAGTTGTATCAAAATGGTGGTTGAATTTCTGCACGTAGAAGCAAAAGGC [TCAATGGTTGA T23A],0.00285
2,GAGACCGCAACTGAAAAGTTGTTACAGAAAATGGGTTGAATTTCTGCACGTAGAAGCAAAAGGC [ACAGAATGTGA],0.00222
3,GAGACCGCAACTGAAAAGTTGTTTCAAAATGATGGTTGAATTTCTGCACGTAGAAGCAAAAGGC [TCAATGATTGA],0.00117
4,GAGACCGCAACTGAAAAGTTGTATCAGAAAGGAGGGTTGATTTCTGCACGTAGAAGCAAAAGGC [TCAGAGGAGTG T23A],0.0042
5,GAGACCGCAACTGAAAAGTTGTTTCAGAAAGATGGGTTGATTTCTGCACGTAGAAGCAAAAGGC [TCAGAGATGTG],0.0039
6,GAGACCGCAACTGAAAAGTTGTTTCAGAAAGATGGGTTAATTTCTGCACGTAGAAGCAAAAGGC [TCAGAGATGTA],0.000871
7,GAGACCGCAACTGAAAAGTTGTTACAGAAAGGATGGGTTATTTCTGCACGTAGAAGCAAAAGGC [ACAGAGGAGTT G34T T37G],0.00192
8,GAGACCGCAACTGAAAAGTTGTATCAAAATGATGGGTTAATTTCTGCACGTAGAAGCAAAAGGC [TCAATGATGTA T23A],0.00393
9,GAGACCGCAACTGAAAAGTTGTTTCAAAATATGGGTTGAATTTCTGCACGTAGAAGCAAAAGGC [TCAATATGTGA],0.00184
10,GAGACCGCAACTGAAAAGTTGTTACAGAAAGGATGGTTAATTTCTGCACGTAGAAGCAAAAGGC [ACAGAGGAGTA G34T],0.000671
11,GAGACCGCAACTGAAAAGTTGTTTCAAAATGGGGGTTGAATTTCTGCACGTAGAAGCAAAAGGC [TCAATGGGTGA],0.00124
12,GAGACCGCAACTGAAAAGTTGTTACAAAATATGGGTTGAATTTCTGCACGTAGAAGCAAAAGGC [ACAATATGTGA],0.00334
13,GAGACCGCAACTGAAAAGTTGTATCAGAAAGATGGGTTGATTTCTGCACGTAGAAGCAAAAGGC [TCAGAGATGTG T23A],0.00606
14,GAGACCGCAACTGAAAAGTTGTTTCAGAAAGGATGGTTGATTTCTGCACGTAGAAGCAAAAGGC [TCAGAGGAGTG G34T],0.00594
15,GAGACCGCAACTGAAAAGTTGTTTCAAAATGGAGGGTTAATTTCTGCACGTAGAAGCAAAAGGC [TCAATGGAGTA],0.00279
16,GAGACCGCAACTGAAAAGTTGTTTCAAAATGGAGGGTTGATTTCTGCACGTAGAAGCAAAAGGC [TCAATGGAGTG],0.00581
17,GAGACCGCAACTGAAAAGTTGTTTCAAAATGAGGGTTGAATTTCTGCACGTAGAAGCAAAAGGC [TCAATGAGTGA],0.0012
18,GAGACCGCAACTGAAAAGTTGTATCAAAATGTGGGTTGAATTTCTGCACGTAGAAGCAAAAGGC [TCAATGTGTGA T23A],0.00162
19,GAGACCGCAACTGAAAAGTTGTATCAGAAAGATGGGTTAATTTCTGCACGTAGAAGCAAAAGGC [TCAGAGATGTA T23A],0.00211
20,GAGACCGCAACTGAAAAGTTGTATCAAAATATGGGTTGAATTTCTGCACGTAGAAGCAAAAGGC [TCAATATGTGA T23A],0.00157
21,GAGACCGCAACTGAAAAGTTGTATCAAAATGATGGTTGAATTTCTGCACGTAGAAGCAAAAGGC [TCAATGATTGA T23A],0.00254
